Measurements reported in publication PMC9082959, “Mechanism of Assembly of the Non-Covalent Spectrin Tetramerization Domain from Intrinsically Disordered Partners” (Journal of molecular biology, 2013).

Experiments:
Conditions in all cases: both partners purified
β16β17 R13A = molecular target: T1, β16β17 R13A (human, UniProt P11277 1898-2083, R2016A); experiment: ITC; β16β17 at 25–50 μM in the cell titrated with 15–20 injections to 2–2.5 eq of α0α1; one-site binding model; PBS (50 mM sodium phosphate, 150 mM NaCl, pH 7.04), 25 °C; mutants only against the wild-type partner
T1 construct: erythrocyte β-spectrin, human, residues 1898-2083 (β16β17); mutant of m2; also called R2016A; source: E. coli C41(DE3), purified (Ni2+ agarose, thrombin cleavage, gel filtration)
T1 sequence (looked up): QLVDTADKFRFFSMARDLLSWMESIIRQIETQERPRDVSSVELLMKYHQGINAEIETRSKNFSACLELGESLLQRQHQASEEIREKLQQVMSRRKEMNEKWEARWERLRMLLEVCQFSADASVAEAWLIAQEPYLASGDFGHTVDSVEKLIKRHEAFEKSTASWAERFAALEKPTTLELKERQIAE

β16β17 S16A = molecular target: T2, β16β17 S16A (human, UniProt P11277 1898-2083, S2019A); experiment: as above
T2 construct: erythrocyte β-spectrin, human, residues 1898-2083 (β16β17); mutant of m2; also called S2019A; source: E. coli C41(DE3), purified (Ni2+ agarose, thrombin cleavage, gel filtration)
T2 sequence (looked up): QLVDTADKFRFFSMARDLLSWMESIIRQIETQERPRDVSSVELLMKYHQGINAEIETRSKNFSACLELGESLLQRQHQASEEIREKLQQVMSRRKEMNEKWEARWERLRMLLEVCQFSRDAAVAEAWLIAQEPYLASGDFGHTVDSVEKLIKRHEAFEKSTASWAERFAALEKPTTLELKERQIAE

β16β17 D39G = molecular target: T3, β16β17 D39G (human, UniProt P11277 1898-2083, D2042G); experiment: as above
T3 construct: erythrocyte β-spectrin, human, residues 1898-2083 (β16β17); mutant of m2; also called D2042G; source: E. coli C41(DE3), purified (Ni2+ agarose, thrombin cleavage, gel filtration)
T3 sequence (looked up): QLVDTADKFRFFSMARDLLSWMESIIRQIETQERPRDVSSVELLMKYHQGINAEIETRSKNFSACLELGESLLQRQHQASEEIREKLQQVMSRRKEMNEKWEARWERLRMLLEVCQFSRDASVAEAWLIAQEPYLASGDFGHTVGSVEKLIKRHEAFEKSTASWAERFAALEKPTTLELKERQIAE

β16β17 K67A = molecular target: T4, β16β17 K67A (human, UniProt P11277 1898-2083, K2070A); experiment: as above
T4 construct: erythrocyte β-spectrin, human, residues 1898-2083 (β16β17); mutant of m2; also called K2070A; source: E. coli C41(DE3), purified (Ni2+ agarose, thrombin cleavage, gel filtration)
T4 sequence (looked up): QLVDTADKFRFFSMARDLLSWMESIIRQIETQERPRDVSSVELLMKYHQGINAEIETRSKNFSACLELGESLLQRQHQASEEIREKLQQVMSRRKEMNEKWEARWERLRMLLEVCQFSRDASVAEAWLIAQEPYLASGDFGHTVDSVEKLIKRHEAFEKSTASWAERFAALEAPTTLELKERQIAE

β16β17 K67G = molecular target: T5, β16β17 K67G (human, UniProt P11277 1898-2083, K2070G); experiment: as above
T5 construct: erythrocyte β-spectrin, human, residues 1898-2083 (β16β17); mutant of m2; also called K2070G; source: E. coli C41(DE3), purified (Ni2+ agarose, thrombin cleavage, gel filtration)
T5 sequence (looked up): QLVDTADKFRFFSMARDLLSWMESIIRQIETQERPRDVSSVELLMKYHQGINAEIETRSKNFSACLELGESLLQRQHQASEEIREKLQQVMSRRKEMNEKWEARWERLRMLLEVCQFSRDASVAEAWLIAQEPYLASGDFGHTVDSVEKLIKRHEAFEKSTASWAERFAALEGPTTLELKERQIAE

[1] = molecular target: T6, β16β17 (erythrocyte β-spectrin residues 1898–2083), wild type (human, UniProt P11277 1898-2083); experiment: stopped-flow intrinsic tryptophan fluorescence (dissociation/unfolding kinetics); wild type; observed rate constants for tetramer dissociation calculated from folding and unfolding experiments in urea; k− in water with mk− 1.44 M^-1; PBS, 25 °C
T6 construct: erythrocyte β-spectrin, human, residues 1898-2083 (β16 plus the incomplete 17th domain); synthetic gene (GenScript) in a modified pRSETA plasmid; source: E. coli C41(DE3), purified (Ni2+ agarose, thrombin cleavage, gel filtration)
T6 sequence (looked up): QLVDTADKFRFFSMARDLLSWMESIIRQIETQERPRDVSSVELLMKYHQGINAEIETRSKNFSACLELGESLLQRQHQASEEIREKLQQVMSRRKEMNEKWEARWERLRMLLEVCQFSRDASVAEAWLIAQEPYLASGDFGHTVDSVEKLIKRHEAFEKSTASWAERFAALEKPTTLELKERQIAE

B1: α0α1 (erythrocyte α-spectrin residues 2–163), wild type (domain or fragment, human, UniProt P02549 2-163, looked up)
chain: EQFPKETVVESSGPKVLETAEEIQERRQEVLTRYQSFKERVAERGQKLEDSYHLQVFKRDADDLGKWIMEKVNILTDKSYEDPTNIQGKYQKHQSLEAEVQTKSRLMSELEKTREERFTMGHSAHEETKAHIEELRHLWDLLLELTLEKGDQLLRALKFQQY
notes: synthetic gene (GenScript) in a modified pRSETA plasmid; also called α1α0; source: E. coli C41(DE3), purified (Ni2+ agarose, thrombin cleavage, gel filtration)
- Ka (β16β17 R13A): 980000 M⁻¹
- Ka (β16β17 S16A): 490000 M⁻¹
- Ka (β16β17 D39G): 280000 M⁻¹
- Ka (β16β17 K67A): 500000 M⁻¹
- Ka (β16β17 K67G): 140000 M⁻¹
- koff [1]: 0.00025 s⁻¹
